These results are taken from paper PMC5150656, “Detecting stoichiometry of macromolecular complexes in live cells using FRET” (Nature Communications, 2016).

To fix the notation:
B1: EYFP tagged myosin Va two tandem IQ domain peptide (IQ5-6) (domain or fragment)
chain: REYKAVIIQKRVRGWLARTHYKRTMKAIVYLQCCFRRMMAKRELKKLKIEARSVERYKK
notes: mouse myosin Va neck domain, two tandem IQ domains IQ5-6, residues R862-K920 (Uniprot Q99104); A three amino-acid linker 'AAA' joins EYFP with the peptide; source: HEK293, transiently transfected, in live cells
B2: EYFP tagged myosin Va four tandem IQ domain peptide (IQ3-6) (domain or fragment)
chain: RTKAATTIQKYWRMYVVRRRYKIRRAATIVIQSYLRGYLTRNRYRKILREYKAVIIQKRVRGWLARTHYKRTMKAIVYLQCCFRRMMAKRELKKLKIEARSVERYKK
notes: mouse myosin Va neck domain, four tandem IQ domains IQ3-6, residues R814-K920 (Uniprot Q99104); A three amino-acid linker 'AAA' joins EYFP with the peptide; source: HEK293, transiently transfected, in live cells
B3: EYFP tagged myosin Va three tandem IQ domain peptide (IQ4-6) (domain or fragment)
chain: RRAATIVIQSYLRGYLTRNRYRKILREYKAVIIQKRVRGWLARTHYKRTMKAIVYLQCCFRRMMAKRELKKLKIEARSVERYKK
notes: mouse myosin Va neck domain, three tandem IQ domains IQ4-6, residues R837-K920 (Uniprot Q99104); A three amino-acid linker 'AAA' joins EYFP with the peptide; source: HEK293, transiently transfected, in live cells
B4: EYFP tagged myosin Va peptide containing a single IQ domain (IQ6) (domain or fragment)
chain: TMKAIVYLQCCFRRMMAKRELKKLKIEARSVERYKK
notes: mouse myosin Va neck domain, single IQ domain IQ6, residues T885-K920 (Uniprot Q99104); A three amino-acid linker 'AAA' joins EYFP with the peptide; also called EYFP-tagged IQ6 peptide; source: HEK293, transiently transfected, in live cells
B5: EYFP tagged myosin Va five tandem IQ domain truncation (IQ2-6) (domain or fragment)
chain: MQRAAITVQRYVRGYQARCYAKFLRRTKAATTIQKYWRMYVVRRRYKIRRAATIVIQSYLRGYLTRNRYRKILREYKAVIIQKRVRGWLARTHYKRTMKAIVYLQCCFRRMMAKRELKKLKIEARSVERYKK
notes: mouse myosin Va neck domain, five tandem IQ domains IQ2-6, residues M789-K920 (Uniprot Q99104); A three amino-acid linker 'AAA' joins EYFP with the peptide; source: HEK293, transiently transfected, in live cells
B6: EYFP-tagged full length myosin Va neck domain peptide containing six IQ domains (IQ1-6) (domain or fragment)
chain: LRAACIRIQKTIRGWLLRKRYLCMQRAAITVQRYVRGYQARCYAKFLRRTKAATTIQKYWRMYVVRRRYKIRRAATIVIQSYLRGYLTRNRYRKILREYKAVIIQKRVRGWLARTHYKRTMKAIVYLQCCFRRMMAKRELKKLKIEARSVERYKK
notes: mouse myosin Va full length neck domain, six tandem IQ domains IQ1-6, residues L766-K920 (Uniprot Q99104); A three amino-acid linker 'AAA' joins EYFP with the peptide; source: HEK293, transiently transfected, in live cells

The target of this assay is T1, ECFP-tagged calmodulin (CaM) (UniProt P0DP23 1-149).
T1 construct: calmodulin (CaM); also called ECFP-CaM; ECFP fused CaM; source: HEK293, transiently transfected, in live cells
Briefly: FRET or BRET; FRET 2-hybrid (3^3-FRET and E-FRET) in single live HEK293 cells, room temperature, basal (resting) Ca2+: Tyrode's bath with 2 mM Ca2+; relative (effective) dissociation constants Kd,EFF; stoichiometry ratio ν = EA,max/ED,max. The note with it: partners not purified.
Take B1: the Kd is approximately 25 nM.

For B2, the Kd was approximately 25 nM.

For B3, the Kd was approximately 25 nM.

For B4, the Kd is approximately 25 nM.

As for B5, the Kd is approximately 25 nM.

As to B6, the Kd is approximately 25 nM.
